From article PMC8043444 (bioRxiv, 2021)

B1: S2H14 IgG1 (LS) (antibody, V domains shown)
VH: not shown
VL: NFMLTQPHSVSESPGKTVTISCTRSSGSIASNYVQWYQQRPGSSPTTVIYEDNQRPSGVPDRFSGSIDSSSNSASLTISGLKTEDEADYYCQSYDSSNQVFGGGTKLTVL
B2: S2D106 Fab (Fab, V domains shown)
VH: EVQLVQSGAEVKKPGSSVKVSCKASGGPFSSSAISWVRQAPGQGLEWMGGIIPMVGTANYAQKFQGRVTITADESTSTAYMELSSLRSEDTAVYYCARDSRYCSGGSCYSVWFDPWGQGTLVTVSS
VL: not shown
B3: S2H97 Fab (Fab, V domains shown)
VH: QVRLVQSGAEVKKSGESLKISCKGSGYSFTSYWIGWVRQMPGKGLEWMGIIYPGDSDTRYSPSFQGQVTISADKSISTVYLQWSSLKASDTAMYYCARQWSHYTYDYYYWGQGTLVTISS
VL: QSVLTQPASVSGSPGQSITISCTGISSDVGGYNSVSWYQQHPGKAPKLMIYDVTNRPSGVSNRFSGSKSGNTASLTISGLQAEDEADYYCSSYTSSSTPPYVFGTGTKVSVL

What was measured:
[1] = target: yeast-displayed unmutated SARS-CoV-2 RBD (Wuhan-Hu-1) (SARS-CoV-2, UniProt P0DTC2); test: flow cytometry on cells
[2] = target: SARS-CoV-2 HexaPro Spike protein for cryoEM analysis (SARS-CoV-2 (Wuhan-Hu-1), UniProt P0DTC2, stabilised); test: cryo-EM structure

Binder | binding result [1] | binding result [2]
B1 | binds | 
B2 |  | binds
B3 |  | binds
